In publication PMC4462945 (Molecular Biology of the Cell, 2015):
Blank lines part the entries; values can stand above or below the molecule they belong to.

Key:
Assay in all cases: pull-down
[1] = target: T1, GST-FliI LRR (mouse)
T1 sequence (Q9JJ28 whole entry, looked up): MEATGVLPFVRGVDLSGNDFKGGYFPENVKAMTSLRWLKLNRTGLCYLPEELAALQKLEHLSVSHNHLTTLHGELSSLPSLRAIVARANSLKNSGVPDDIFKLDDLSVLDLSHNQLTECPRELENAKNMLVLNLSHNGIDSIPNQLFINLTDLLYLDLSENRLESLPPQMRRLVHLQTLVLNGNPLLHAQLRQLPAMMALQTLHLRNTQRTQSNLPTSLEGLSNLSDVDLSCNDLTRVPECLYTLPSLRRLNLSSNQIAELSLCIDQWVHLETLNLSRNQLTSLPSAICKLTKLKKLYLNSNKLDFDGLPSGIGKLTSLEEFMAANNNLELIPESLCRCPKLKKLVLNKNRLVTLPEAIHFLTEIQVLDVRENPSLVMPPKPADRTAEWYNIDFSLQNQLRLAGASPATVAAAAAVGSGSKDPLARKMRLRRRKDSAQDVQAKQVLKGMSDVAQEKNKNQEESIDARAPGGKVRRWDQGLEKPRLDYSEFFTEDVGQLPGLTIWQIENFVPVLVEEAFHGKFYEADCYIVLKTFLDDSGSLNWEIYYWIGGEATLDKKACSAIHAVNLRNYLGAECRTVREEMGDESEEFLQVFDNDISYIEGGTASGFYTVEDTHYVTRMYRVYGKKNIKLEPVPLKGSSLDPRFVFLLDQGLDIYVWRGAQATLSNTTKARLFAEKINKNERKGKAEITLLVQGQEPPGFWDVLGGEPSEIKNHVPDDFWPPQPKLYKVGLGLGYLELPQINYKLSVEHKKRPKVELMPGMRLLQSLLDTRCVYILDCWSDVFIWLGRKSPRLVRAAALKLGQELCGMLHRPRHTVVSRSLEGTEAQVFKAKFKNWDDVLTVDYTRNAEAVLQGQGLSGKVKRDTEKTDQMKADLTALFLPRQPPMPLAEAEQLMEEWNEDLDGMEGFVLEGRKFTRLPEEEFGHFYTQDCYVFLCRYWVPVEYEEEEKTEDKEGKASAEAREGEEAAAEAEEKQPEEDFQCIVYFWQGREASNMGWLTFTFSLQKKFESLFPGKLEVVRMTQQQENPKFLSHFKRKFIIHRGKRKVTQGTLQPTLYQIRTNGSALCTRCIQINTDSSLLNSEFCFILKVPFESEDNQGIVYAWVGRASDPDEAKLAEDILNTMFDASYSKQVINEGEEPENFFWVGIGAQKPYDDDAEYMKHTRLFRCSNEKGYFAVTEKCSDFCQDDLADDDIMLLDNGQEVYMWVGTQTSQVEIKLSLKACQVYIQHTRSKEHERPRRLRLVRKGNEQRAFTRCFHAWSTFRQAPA

[2] = target: T2, GST-FliI GLD 1–6 (mouse, UniProt Q9JJ28 398-1271)
T2 sequence (looked up): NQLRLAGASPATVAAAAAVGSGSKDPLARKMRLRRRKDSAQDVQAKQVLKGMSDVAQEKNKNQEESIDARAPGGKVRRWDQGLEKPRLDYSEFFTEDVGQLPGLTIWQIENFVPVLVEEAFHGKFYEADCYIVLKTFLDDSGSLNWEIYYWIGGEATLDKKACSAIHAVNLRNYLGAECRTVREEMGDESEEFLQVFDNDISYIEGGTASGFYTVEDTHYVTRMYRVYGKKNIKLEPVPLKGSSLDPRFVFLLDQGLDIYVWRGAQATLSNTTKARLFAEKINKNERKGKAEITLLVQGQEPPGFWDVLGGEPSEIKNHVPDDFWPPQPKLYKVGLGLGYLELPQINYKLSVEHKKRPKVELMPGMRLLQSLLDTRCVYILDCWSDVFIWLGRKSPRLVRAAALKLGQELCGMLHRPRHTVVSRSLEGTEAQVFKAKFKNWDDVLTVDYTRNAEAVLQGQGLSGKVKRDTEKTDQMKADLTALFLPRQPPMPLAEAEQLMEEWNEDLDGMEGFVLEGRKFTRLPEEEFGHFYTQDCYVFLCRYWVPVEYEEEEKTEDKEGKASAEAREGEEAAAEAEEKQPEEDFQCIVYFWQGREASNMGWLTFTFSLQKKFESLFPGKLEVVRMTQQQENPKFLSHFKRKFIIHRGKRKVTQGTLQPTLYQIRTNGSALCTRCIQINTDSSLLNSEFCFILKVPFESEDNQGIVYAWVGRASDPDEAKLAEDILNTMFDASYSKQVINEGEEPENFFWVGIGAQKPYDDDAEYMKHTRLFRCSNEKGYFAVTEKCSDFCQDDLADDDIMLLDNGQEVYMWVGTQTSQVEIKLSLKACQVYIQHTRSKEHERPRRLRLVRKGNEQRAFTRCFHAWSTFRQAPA

[3] = target: T3, GST-FliI GLD 2–6 (mouse, UniProt Q9JJ28 619-1271)
T3 sequence (looked up): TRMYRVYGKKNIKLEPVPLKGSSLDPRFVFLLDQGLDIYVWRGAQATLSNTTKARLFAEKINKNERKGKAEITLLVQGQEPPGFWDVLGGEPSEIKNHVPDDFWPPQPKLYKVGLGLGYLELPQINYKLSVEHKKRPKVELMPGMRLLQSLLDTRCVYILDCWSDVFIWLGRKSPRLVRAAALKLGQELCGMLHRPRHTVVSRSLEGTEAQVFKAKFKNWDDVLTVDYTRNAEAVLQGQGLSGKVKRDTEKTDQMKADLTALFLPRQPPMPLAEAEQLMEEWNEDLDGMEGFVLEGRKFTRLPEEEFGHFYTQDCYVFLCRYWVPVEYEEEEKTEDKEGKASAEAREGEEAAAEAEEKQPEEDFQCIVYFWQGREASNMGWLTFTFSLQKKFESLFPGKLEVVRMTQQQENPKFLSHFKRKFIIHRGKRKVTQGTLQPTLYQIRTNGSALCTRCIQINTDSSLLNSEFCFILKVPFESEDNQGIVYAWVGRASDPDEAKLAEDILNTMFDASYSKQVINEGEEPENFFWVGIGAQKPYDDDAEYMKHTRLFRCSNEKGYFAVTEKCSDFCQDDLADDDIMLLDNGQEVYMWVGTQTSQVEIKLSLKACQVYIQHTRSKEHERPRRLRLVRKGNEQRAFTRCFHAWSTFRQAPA

Kd [1]: 5.07 µM
Molecule: NMMIIA rods (residues 1338–1960) (from UniProt P35579 1338-1960) (domain or fragment)

Kd [2]: 146 nM | Kd [3]: 858 nM
B1: NMMIIA rods (residues 1338–1960) (domain or fragment, UniProt P35579 1338-1960, looked up)
chain: KNSFREQLEEEEEAKHNLEKQIATLHAQVADMKKKMEDSVGCLETAEEVKRKLQKDLEGLSQRHEEKVAAYDKLEKTKTRLQQELDDLLVDLDHQRQSACNLEKKQKKFDQLLAEEKTISAKYAEERDRAEAEAREKETKALSLARALEEAMEQKAELERLNKQFRTEMEDLMSSKDDVGKSVHELEKSKRALEQQVEEMKTQLEELEDELQATEDAKLRLEVNLQAMKAQFERDLQGRDEQSEEKKKQLVRQVREMEAELEDERKQRSMAVAARKKLEMDLKDLEAHIDSANKNRDEAIKQLRKLQAQMKDCMRELDDTRASREEILAQAKENEKKLKSMEAEMIQLQEELAAAERAKRQAQQERDELADEIANSSGKGALALEEKRRLEARIAQLEEELEEEQGNTELINDRLKKANLQIDQINTDLNLERSHAQKNENARQQLERQNKELKVKLQEMEGTVKSKYKASITALEAKIAQLEEQLDNETKERQAACKQVRRTEKKLKDVLLQVDDERRNAEQYKDQADKASTRLKQLKRQLEEAEEEAQRANASRRKLQRELEDATETADAMNREVSSLKNKLRRGDLPFVVPRRMARKGAGDGSDEEVDGKADGAEAKPAE
